Peptide text beside a SMILES is read from it.

The subject of data set [1] is human monocytes. The experiment in a line: Viability of cultured cells with IT9302. Conditions: any concentration of IT9302 between 0.1 and 1000 ng/ml; viability always exceeded 80% after 1 day in culture. In kind it is cell-based.
Data set [2] deals with human monocytes. The experiment in a line: Class II MHC (HLA-DR) antigen expression on IFN-γ stimulated human monocytes, flow cytometry. To be noted: 10 ng/ml rhIL-10 before IFN-γ 10 ng/ml, 40 hours; unstimulated 36.8%, IFN-γ alone 58.4%. In kind it is cell-based. How it is done:
HLA-DR expression on human monocytes. The monocytes were isolated from fresh, heparinized blood by adherence to plastic at 37° C. in RPMI 1640 containing 10% FCS. After incubation, the supernatant was removed, Hank's solution (4° C. with 1% FCS) was added, and the cells were detached by cooling at […] for 15 minutes and gentle banging to the table. Monocytes were stimulated (2×10^6 cells/ml) in RPMI 1640 added 2% FCS, with IFN-γ (10 ng/ml), or rhIL-10 (100, 10, 1 ng/ml) added before IFN-γ, or IT9302 (10, 1, 0.1 ng/ml) added before IFN-γ for 40 hours. The cells were detached from the wells by cooling as before. Fresh, non-fixed cells were used for surface typing by antihuman antibody for HLA-DR. The cells were resuspended in Hank's solution with 1% FCS, 1×10^6 cells/ml and FITC conjugated mouse-anti-human HLA DR, DP, […] antibodies were added (F 0817, DAKO Denmark) for 45 minutes. The cells were washed three times in Hank's solution and a FACS analysis was performed on a Coulter-Epics XL-MCL flow cytometer at a wavelength of 488 nm. Non-specific binding was determined with a non-relevant Fitch conjugated antibody (mouse anti goat DAKO F 479).
The monocytes were purified as described above and stimulated for 40 hours by IFN-γ (10 ng/ml) and/or rhIL-10 and/or IT9302 added 30 minutes before IFN-γ. […]

In data set [3] the test system is human monocytes. The experiment in a line: Determination of apoptosis in monocytes (DNA typing, propidium iodide flow cytometry). In kind it is cell-based. Conditions: with IFN-γ stimulation; non-stimulated 6.6%, IFN-γ alone 4.1%. How it is done: Alternatively cells were fixed in 10% DMSO, 40% RPMI 1640 and 50% sterile FCS, and stored at −80° C. and used for DNA typing.
DNA typing of the stimulated monocytes. The fixed cells were incubated in 70 ethanol for 60 minutes and washed twice in Hank's solution. 1×10^6 cells were resuspended in 250 μl of RNase 1 μg/ml in 1.12% sodium citrate, pH 8.4 (Ribonuclease A, Pharmacia No. 17-0442-01) and incubated at 37° C. for 3 minutes. Thereafter, 250 μl of propidiumiodide (50 μg/ml in Hank's solution) was added, and cells were incubated in the dark for 30 minutes. After this the cells were washed twice in Hank's solution (Jensen et al., (110)). The DNA content was measured by flow cytometry on a Coulter-Epics XL-MCL at a wavelength of 550 nm.
The IFN-γ stimulated monocytes from above were incubated with propidium iodide and the DNA content was measured by flow cytometry. The fraction of cells expressing DNA in G1 or G2 phase of cell proliferation was measured and also the fraction expressing apoptosis.

Another data set deals with PBMCs. The experiment in a line: T cell proliferation, PHA stimulated PBMC, 3H-thymidine incorporation. In kind it is cell-based, human. Conditions: 72 hours, 3H-thymidine last 18 hours. The method, then:
Proliferation assay. PBMCs (2×10^5) were cultivated in 200 μl of RPMI medium with 10% FCS for 72 hours with PHA 0.5 μl/ml and rhIL-10 (1, 10, 100 ng/ml) or IT9302 (0.1, 1, 10 ng/ml) in triplets. The last 18 hours ^3H-thymidine was added with 0.5 μCi/well (Amersham, Denmark). The cells were harvested on a filter (Glass Microfibre Filters, Whatman, Cat. No. 1822 849) and scintillation fluid (Ultima, Gold MV, Packard) was added. The scintillation counting was made on Tri-Carb model 1600 TR, Packard.
PBMC's were stimulated with PHA as described above and rhIL-10 and IT9302 were added for 72 hours, and the ^3H-thymidine incorporation was measured for the last 18 hours.

Data set [4] concerns normal human CD4+ T cells. The experiment in a line: IL-4 production by cultured CD4+ T lymphocytes, ECL-Western blotting. In kind it is cell-based. To be noted: IT9302 10 ng/ml or IL-10 100 ng/ml, 3 days, cytosolic fractions. The method, then: CD4+ T lymphocytes were purified from heparinized normal human blood. Following Lymphoprep™ (Nycomed Pharma, Oslo, Norway) gradient centrifugation, the mononuclear cells were further sorted at 4° C. using Dynabeads (Dynal AS, Norway) coated with monoclonal anti-CD4 antibodies. The beads were detached by adding polyclonal anti-mouse antibody (Dynal AS, Norway). The purity of the positively selected cells were higher than 99% as judged by FACS analysis. […]
Cells or freeze-dried cell culture supernatants were used for IL-4 protein content determination. […] The blots were then incubated with a polyclonal goat anti-human IL-4 antibody (R&D Systems, UK) followed by a horseradish peroxidase-labelled secondary antibody (Cat. no. RPN 2106 ECL, Amersham, UK), and the immunostaining was detected by exposing a film (Kodak X-OMAT-S, USA) for 90 seconds.
Thus, CD4+ T cells, purified as described in “Methods for T cell chemotaxis”, and cultured as described in the section “Determination of IL-4 production by CD4+ T lymphocytes”, were stimulated for 3 days with IT9302 (10 ng/ml) or IL-10 (100 ng/ml). Cytosolic fractions were collected and analyzed for their IL-4 content using Western blotting (FIG. 9) and a goat anti-human IL-4 polyclonal antibody.

Turning to `CC[C@H](C)[C@H](NC(=O)[C@H](CCCCN)NC(=O)[C@H](CCSC)NC(=O)[C@@H](NC(=O)[C@H](CCSC)NC(=O)[C@H](Cc1ccc(O)cc1)NC(=O)[C@H](C)N)[C@@H](C)O)C(=O)N[C@@H](CCCNC(=N)N)C(=O)N[C@@H](CC(N)=O)C(=O)O` [IT9302, NH2-Ala-Tyr-Met-Thr-Met-Lys-Ile-Arg-Asn-COOH] (H-AYMTMKIRN-OH), the “effect on viability of cells” value in the data set on human monocytes [1] is “did not in this or in the following examples affect viability”.

B1: rhIL-10: recombinant human interleukin 10 obtained from Pepro Tech Inc. (protein)
chain: SPGQGTQSENSCTHFPGNLPNMLRDLRDAFSRVKTFFQMKDQLDNLLLKESLLEDFKGYLGCQALSEMIQFYLEEVMPQAENQDPDIKAHVNSLGENLKTLRLRLRRCHRFLPCENKSKAVEQVKNAFNKLQEKGIYKAMSEFDIFINYIEAYMTMKIRN
On to B1, for which the “MHC II antigen expression in the cell population” value in the data set on human monocytes [2] was 25.2%. The “fraction of monocytes expressing apoptosis” value in the data set with human monocytes [3] was 10.3%. Besides, the “optimum concentration for downregulation of cell proliferation” value with PBMCs was found to be 100 ng/mL. Besides, in data set [4], the “production of IL-4 by cultured normal human CD4+ T cells” value was “induce the production of IL-4”.
